The series is described as follows: label from the status in PepcDB records.
Consider “MGLTDIFLNLLLFVYPAVFIIYQIILYEISARKQINQEALKYSNLPVLSIIVPIKNEEISVIQGLLDNLSNLIWDKKKLEIIIVSDDNEDYFTKIINTVKVPKDLTVYFYRREKKLGYKSGALQYGFEKATGDLILTIDVDSRLPPNALINAYEKMQSNTCDAIVFQWNGYSSNQYSTLAKGMVVSTLFASKALFEGKEKLKLKIYPVGSGTMFSREALRVVNGWDYRLVQDDLEIGTRLIYNGKNVCASGIPIYVEVPDNFYSFYVQQTRWAMGSAEVLRNRLKYIIKSKISFTQRMDLIIYLLQYTPVIVTFFISTLLSLMLPFRIGHDPLNSPALLFWLVSLGLYASLLLSLALKLGLNLKDSLMGIGRLTAFTVSISPFIVFNFFKGLLKSGNTYVITPKGTVKKTNKLLRIIAIIGVFGLLYLLSSILYIYEGYYVTGIWLLYYSSAYLYTMLLYYKEL”, for which the protein production result is “failed”. In the case of “MGLTSHKYKYVSIYFLALLFLGIAVIESLHISHTRDLQEGLRQQAKEDLSIVRFQLEAEILGDIYTVKGLTTLLTLDPDLNIYQWEPLSAAVIRNSDHLRSLGIAPNDVVAFSYPLPQTNALLGLDYRTVPQQWQSIKKAREIKQTFVSGPVDLVQGGRALVIREPIFYDPPKDTRYWGVLSVVMDWDSLLSATSIYSFGEHFQVAIRGLDSRGSEGDVFFGEPRVFEHAFAQENVYFPYGSWRIAVAEKQDLLQQLSWYTRNAVRLLGYSVLLVLMAGFGVIMRLYQVAEERALHDPLTHLPNRRYFIYTIEHYFENAKRSHSEGNFALLNIDIDRFKSINDSHGHSAGDKVLVACAERIKSSLRVSDLVARIGGDEFLVLIPRIHREQDVLKVSDNILKRISETPIVYDDKLIHVRVSIGYALYDQSFATPDEMFKLADERMYTAKRRQNPLYRF”, the protein production result is given as “failed”.

Take “MGMASMSSGTESLRLCVFDLRRGQHEGQELDKILFFYPPDLTFSTQLSVIGLSEGLITFTRLFSPEAACEVIEAERHSHVFYEAEPDIWMVMIVEKNKEIEAVWRIDALRRVLKEVHSLFVMFQGSIRALLEKEPTGGLVRSHLYPFITDYLNDLFVGKKQQLPSFRDTLKERGTVQMLTLARDAALEVQSLVGVLDSCAGTVRCHSVILFHDLLVSTTLSPDDTVDLFAFSVMRLTTNALSSGTSSWSYLRKGSGSPQISSRSTTVPPLGSGGTLPSGNGSSTGRVIRPLQHDKWSKGKDGFLVTDIWGLDATPTILIQKTQESFYLLTYQYKSLTLVLLVPIAAIVNGELDISFVKQQVIENASTKILKVEEKLSKGWGGENAYHVSGYRYLLVDNDMEVSRASPPGKVATLAKESLLALNKLREEVDTEKNRSKQEKDMEICIRAKNNTWVIARLNRGKELYMALEKASETLLDATDSVQRFSNRYCSGAFPMD”: the protein production result is recorded as “failed”.

“MGMEHKTYEADLFVWCQQQADGLRALSRSRRDLPDDLDLEHIAEEIEDMGRSELREATSLVRQICVRVIMAMSAPEAPDRARWRSEVVSWHNLLLDTITPGMIDRIDIGVIWRRAVSEAKAALIEINVAPQAGLSFQAPLPADHFLDEDFDYDATVARLGPTA”: the protein production entry was “not failed”.

Turning to “MGMPAGPYLLTPPGVYAPQHDTDLLARALRREDIDTSTEVLDLGTGSGALAVHAARLGARVTAVDISRRAVLTARLNALLAGRRVTVRRGDLTAAVPGRSYDLVVSNPPYVPSPSARLPSRGAARAWDAGHDGRAFVDRICDTAPAALRAGGALLIVHSALCGTRPTLDRLAAAGLDASVTDRAFVPFGPVLRARRAWLRRQGLLTDENLEELVVIRAEHS”, the protein production entry is given as “failed”. The entry for “MGNKKEIAIVALTTGFVLTSVTPYGVGHAEETGQMQVEIQEDSFRTGDLTQPSKKAPENVVKDALKENTEHALSPKQVSAETGVDYKVLQKRGSYDGTTLVRMQQIYEGKEVYGHQLTAHVDKKGIIKSISGASAQNLTQEDLKKPINLSKEEAKQYIYKKYGNDTKFISEPEVKAVIFVDENHGQASNAYQVTFAATTPNYVSGTYLVNAHNGEMLKDMVQESSLKISEEYVESVKENKTSNFTSLTGTGKDDLGVTRTFGISKQTSGNYALADYTRGQGIETYDVNYRDITNEESYYPGILATSVSTTFNDPKAVSAHFLATKVYDFYKEKYKRNSFDNKGKKVVSVVHAWDSGGTNDPENWENAFSTNINNISMLLYGDPMVKAFDIAGHEFTHAVTSSESNLEFSGESGAINEALSDIMGTAIEKYINNGEFNWTIGEQTGSTFRNMKNPTAINFSEGLPYPDDYSKYNDLNGEDYGGVHFNSSIINKVAYLMAQGGTHNGVNVNGIGEDRMFDIFYYANTDELNMTSNFSELKLACLKVATNKYGANSIEVQAVQNAFDAAKITGTVKENEKTAENQAPELTVPFTITLRVGDTFDPMRNVKAVDKEDGDLTNKVKHKGDVDTSKPGTYIVEYMVVDSQGRNATATQTVIVEGNGETSDLEPKLTVPVGATIHVGDSFVPMAEVLAIDKEDGDLTSKIKVDGEVDTTKAGTYVLTYTVTDSKGHEVTAKQTVTVKVREEVKNDKPILKVPATTSITEGDQFDPLVGVSATDKEDGDLISKVAYEGTIDTTKAGTYEIIYSVRDSVGNEVNAIQKVLVKDKETSKANGLANKENKSNISNNSNSDKKEYTYKELPKTGVSTTNSAAIGILIIIVGTVLTLVRKFRKIQK” is “failed”; for “MGNQLAIQMNSDEDDDFDSSDNELGFNVINFTVNAMDLRSDYCSSEMPVIRGKPDLVKFQKTDMYKEIQASSGLVSNPNNRWNLVHALQQRENGLASPHSASFSKNQQRYISNLYIPNKKATRLMSLESKIFVTKFNRSGSKLLTACQDGFVRIYDGAKGTYHLLNRIRARDVEWSIIDADFSPNGEHFAYSTWSRSLFIMPVNGGEDDCQWIDVNGLPSHRLAIFSLRYSPTGDKIIGGSNNSTVIVTDIRTRNTQILRTHRMPGKDVNSVCFLHDKDPNVIIAGCDDGLLKVYDLRTTFRSRDLSKSVASFIGHYDGITYIDSRNDGYHVLSNSKDQSIKIWDIRQPSNMRNRSRSRQQVDPTTWDYRWNRVPREFYNPHKPLEGDSSIMTYRGHRVTKTLLRAKFSPMEQTGQRYIYTGCATGRIIIYDVLTGKIQEAIEGHRTVIRDLDWHPDRSEIVSGSWDTHVHLNNFSRSNANRPVKRSHSSDHDKKPLRRSRRLANRNVTPD” it is “failed”; for “MGNVGLLFVGAVLFMNGLLLLGKVDAKAAAVFNLFIGALQVLTPTYLIFTANGDPMKILAASGIYLFGFTYLYVGIGLLTGLDSTGVGYYSLFVAVAALGYSFVNFRLFKDYPFGVIWLYWAYLWFLFFLLLGLKKDDLKIYTGWVTAIEGWVTGAIPAGLLLSGYWKHPTETAIALAVFGVVVFVGLWPRTHRTPRPTSAAPRTGGVGAPT” it is “failed”. The entry for “MGPRRLLLVAACFSLCGPLLSARTRARRPESKATNATLDPRSFLLRNPNDKYEPFWEDEEKNESGLTEYRLVSINKSSPLQKQLPAFISEDASGYLTSSWLTLFVPSVYTGVFVVSLPLNIMAIVVFILKMKVKKPAVVYMLHLATADVLFVSVLPFKISYYFSGSDWQFGSELCRFVTAAFYCNMYASILLMTVISIDRFLAVVYPMQSLSWRTLGRASFTCLAIWALAIAGVVPLLLKEQTIQVPGLNITTCHDVLNETLLEGYYAYYFSAFSAVFFFVPLIISTVCYVSIIRCLSSSAVANRSKKSRALFLSAAVFCIFIICFGPTNVLLIAHYSFLSHTSTTEAAYFAYLLCVCVSSISCCIDPLIYYYASSECQRYVYSILCCKESSDPSSYNSSGQLMASKMDTCSSNLNNSIYKKLLT” is “failed”; for “MGQFSILGFIALGGAIGACSRYLVSEFCVLLFGRGFPYGTLTVNVVGSFIMGLLIAAFENEILATEPWRQVIGLGFLGALTTFSTFSMDNVLLMQQGAFFKMGLNILLNVVLSISAAWIGFQLLMRS” it is “failed”.

As for “MGQKAKAQAPTTHPRPHTLSSQVAPALPRRPRHAAPESLRQARGEVMKAHLITYGCQMNEYDTHLVQSQLVSFGADIVESPDEADFVLVNTCAVRGKPVDKVRSLLGDLRKQKAQRSLVVGMMGCLAQLEEGQQIARKFEVDVLLGPGSLLDIGAALESNERFWGLQFKDELHDHIPPPPSGKLQAHLTIMRGCDHHCTYCIVPTTRGPQVSRHPDDILRELDMQLAAGVREVTLLGQNVNAYGVDQGAKLKGYPSFADLLRMVGASGIERVKFTTSHPMNFTEDVAAAIGETPAICEFVHLPVQSGSDRVLRRMAREYNREKYLTHIAQIKKHIPDVVLATDIIVGFPGETEEDFQDTLSLYDEVGYDSAYMFIYSPRPGTPSYKHFQDLPRELKTERLQRLIARQKDWSARKNAQKVGTVQQVLLRGDAHDAGFLEGHTRGNHPTVVPKAIGADGAGVYQVRIDHATPHMMYGHILGPDGQPLPEQPRFNPEAAAVGGALPML”, the protein production result is “failed”. The entry for “MGRAHVSTHELVAGRYRLFEVVQRETNRVCWSGEDATTGRPCLVTRIELPEGRAGEAARRAPGRVIRTGETMASLCPGRIAPVLDAVVADGMLWTVTEWVAGVPLGDLLDRRGAFGCARAARVGLELLAVLEAAHTHGVTHGELSPGQVFVREEGSVLVTGFGLAGATLAPRLTAPAYASPEQARDERIGPAADLWTLGAILYTMVEGRPPFRDRGRPEATLKGVDRLPLRTPVRAGPLAQAVTGLLRKNSRERPTRPVVRAALARALAEDPGTAVTEVTTGPGVRGGYAAARTAGRDRSRRTVAAGTALAVVTVAVAVLADLAVTDGLPGRGDGAAAGARQRPSASAAPPTGSAPAAASPGSPSSPAGRPSASASPSKPGVPAPAGFRRYDAPEGFSVALPEGWRRLDTASAPGGAYRVVFGASGDPRTLAVTYSRRAGADPVVVWRDDVEPGLARSDGYRRIGEIRSTTYRGRAAADMEWLVRDDGTRLRTFGRGFLLGGGRSFSLRWTTPAGDWDDSANERALAAFLGTFRDGAA” is “failed”; for “MGRAMGDSFTFIFNPAADKGRAADKTALIERSLAHFEVASLETTRFAGHAAEIARAAAGEGSTLIACGGDGTLNEVVNAVAGQPVKVGVLPVGSANDFLKTFNPSAKEHEVRIRGFAGATSRKVDLGKV” it is “failed”; for “MGREFLDLFEQWAESYDQSVEGYDEQYRDVFAGYDRILSTVADKAGQVVLEFGIGTGNLTKKLLERGKTVYGIEPSAPMRKKAAEKLGERAVIMDGDFLQFPLPPEPIDTIASTYAFHHLTDAEKDEAIAKYSQLLHSGGKIVFADTAFRDKEAFRQTVEAARARGFHDLADDLEREYYTTLDVLASLFANHGFSVSFAQQNAFVWVMEAVKQTTLEHHHHHH” it is “not failed”. To “MGRKNSPSERERELQNLIAQYEAVKAKNESLYLDGDQLADIADLYASERKFKEAQEVITYGLGLHPGHTDLMVEQAYLFLDLNQPQKAKEVAELITDTYSSNVKLLLAELLLNEGKLDAADQMLDSIEEEEKNDLGILVDIVYLYTDLGYPEKGVQWLKRGAEMYKDDEDFLAATADCYGAAGAEYIEQAIVVFNKLIDKNPYNPAYWVGLAKCQFATKDFDKAIESCDFAIAADEEFGEAHIIKAHSLFHLENIEGAIVEYRKALKYKTLSPEFTYMFIGLAYTQQENWAEANESYSMALRAIEENGNGSSPLLSDIYSNKALCASRQGDSEEAHRLCRLAKELAPQDAEPYLLEGRIYMEEDNFDLARAEWALALRYAPEADTWMEIGNYSLEFRMLENARFCFEQVLEEDPEYPKICEQLAAVCLVLQDHEGFKKYNAMSGDSINLDSLRDTILEMGVDGEQMLRELDDFLKDEK” belongs “failed”; to “MGRLSGKTILVTGAASGIGRAALDLFAREGASLVAVDREERLLAEAVAALEAEAIAVVADVSDPKAVEAVFAEALEEFGRLHGVAHFAGVAHSALSWNLPLEAWEKVLRVNLTGSFLVARKAGEVLEEGGSLVLTGSVAGLGAFGLAHYAAGKLGVVGLARTLALELARKGVRVNVLLPGLIQTPMTAGLPPWAWEQEVGASPLGRAGRPEEVAQAALFLLSEESAYITGQALYVDGGRSIVGPPGLPPGFGPKGGERHAHVL”, “not failed”.

Source of the values: a protein production outcome set (Wang et al. 2014).
